Measured values as given in the DeepSol protein solubility set.

Assay: soluble on expression in E. coli; label from the status in PepcDB or PDB records

Row | Sequence | soluble on expression in E. coli
1 | NDPEWFAIVKWTLFAMLNAEEAKITSKNVEAEAKATKNPDVARMLGADGTYGKDLNLPKDWVVQIVKQVGNYGEVFERNLGEGTPLKIKRGQNALWNAGGIQYAPPIR | not soluble
2 | NEHLGGIYDYLRTRRMQTLTELERTTTIETKTTREAIPETEAKADYRRQKEVAKQLRTLERTVATCEERIGKLESELQAIEMLLQDPKHATDANLFERYAGMKQELEKAMEDWEQASEALSEAQG | not soluble
3 | NEKITKKDALELFSLPIHAVGRIADEIRKVKCGDLVTFVNDTNINYTNICLSKCRFCAFYAREKGYVLSHEEILRKVGYAVKMGATQIMLQGGMNPDLGLEWFEELFRKIKARFSSVHIHSLSPPEIVFLAKLERSSIREVLDRLKAAGLDSLPGGGAEILVDSVRRKISPNKCSSDEWLRVMETAHSLNMPTTATMMFGHVESDGDIVEHLIKIRELQEKTGGFTAFIPWTFQPGNTELYAEIKRPVSPLRYLQVLAISRIVLNNFRNIQASWLTQGFEIATLSLFFGANDFGGTMLEENVVRATGKDFRPAKIEEIVKAVKAVGRPVALR | soluble
4 | NEPVAVIGVGCRFPGDIDGPERLWDFLTEKKCAITAYPDRGFTNAGTFAESGGFLKDVAGFDNRFFDIPPDEALRMDPQQRLLLEVSWEALEHAGIIPESLRLSRTGVFVGVSSTDYVRLVSASAQQKSTIWDNTGGSSSIIANRISYFLDIQGPSIVIDTACSSSLVAVHLACRSLSTWDCDIALVGGTNVLISPEPWGGFREAGILSQTGCCHAFDKSADGMVRGEGCGVIVLQRLSDARLEGRRILAILTGSAVNQDGKSNGIMAPNPSAQIGVLENACKSARVDPLEIGYVEAHGTGTSLGDRIEAHALGMVFGRKRPGSGPLMIGSIKPNIGHLEGAAGIAGLIKAVLMVERGSLLPSGGFTEPNPAIPFTELGLRVVDELQEWPVVAGRPRRAGVSSFGFGGTNAHVIVEEA | soluble
5 | NFMLNQPHSVSESPGKTVTISCTRSSGNIDSNYVQWYQQRPGSAPITVIYEDNQRPSGVPDRFAGSIDRSSNSASLTISGLKTEDEADYYCQSYDARNVVFGGGTRLTVLG | soluble
6 | NGGVGVDVELITSINVENDTFIERNFTPQEIEYCSAQPSVQSSFAGTWSAKEAVFKSLGVKSLGGGAALKDIEIVRTNKNAPAVELHGNAKKAAEEAGVTDVKVSISHDDLQAVAVAVSTKK | soluble
7 | NGMDEEQRQKRRRIEVALIEYRETLEEQGMKNPEEIERKVEINRKRLEVDYGLS | soluble
8 | NKDMSFTVRGNYTFSQNIIDYYEENKLPYDYLSVTGKPFNILRGYIAEGLFSSKEEINTSADQSGFGRIRPGDIKYRDVNGDGIINDDDKVPLSYSNQLPRVMYGFGADFHWKDLTLSFLFKGSAKVDYYRSGLGNDAGWIPFYNGELGNVIKLANNPKNRWTPAWYSGTTATENPHAEFPRLSYGGNTNNSQLSSFWKRNGSFLRFQELSLKYNLKTPWIKKTGLSSVDLEFVANNLFTIDKVKYFDPEQASANGAAYPIPATYTFQVYLKF | not soluble
9 | NKDWNVYASANFNYNRQEITKLFFGLNKYMLPNTGTIWEIGYPNSFYMAEYAGIDKKTGKQLWYVPGQVDADGNKVTTSQYSADLETRIDKSVTPPITGGFSLGASWKGLSLDADFAYIVGKWMINNDRYFTENGGGLMQLNKDKMLLNAWTEDNKETDVPKLGQSPQFDTHLLENASFLRLKNLKLTYVLPNSLFAGQNVIGGARVYLMARNLLTVTKYKGFDPEAGGNVGKNQYPNSKQYVAGIQLSF | not soluble
10 | NPHLLVKYHSGFFVDGKFLCCQQSCKAAPGCTLWEAY | soluble
11 | NQNQTQHKQRPQATAEQIRLAQMISDHNDADFEEKVKQLIDITGKNQDECVIALHDCNGDVNRAINVLLEGNPDTHSWEMVGKKKGVSGQK | soluble
12 | NTATVITVGNYKGGAGKTTNVVLLAYKLAKKGLKVCVLDLDPQSNATKSLLLTKSSLYQDEVVTIEKTLMTGISEKNLDGLEVKIMDNLYLLPSYIDFEDFPKYLYKNTSNQREEDYYLKNIFTPLQGKYDIVLIDVPPMSKAVTRNAVICSDYVLISLQTHERSLSGAESYVEELNKLHNEYDLDLEVVGVLPVIHKNNGSVDQYVMEVAKETFGEDNLFENVVPQMERIKRFDVNGITDKDRHDQKVLNLYDKVSDELLDRINYFEEEKEGAIN | not soluble
13 | NTIEKEERIKIAVLTEQNQKNRIADYQDREEIYERQRRKMHDYKNQLSTIQTLIKNGHTDEALSFTQKLTESIAVEMSAINTNHPVVNAILNQKYRSMQEKHIAVILKVGDLQEICLEEEEIVILLSNLLDNAIRESEKVLKNTGKAVIHLKLECEDHKLIFAVRNPVTEKVEIENDTIKSKRGDHHGIGLLNVKAVVDKYGGDMVLSCDENEFKAVVIL | not soluble
14 | NTKQLRFEDVVNQSSPKNCTVYCGGIASGLTDQLMRQTFSPFGQIMEIRVFPEKGYSFVRFSTHESAAHAIVSVNGTTIEGHVVKCYWGKESPDMT | soluble
15 | NTQLNIKMQPDTQTLDEVVVIGYGTVKKRDLTGAVASVKSEDIVRMPTSNVLEAIQGQVAGLDITRSSGEAGSGVNMTLRGTRSINGDNSPLFIIDGMEGSYDELNPNDIASIEVLKDASSTAVYGAAGANGVIIITTKTPKKDK | not soluble
16 | NYNIYDHPKAAEDRKNTVLYLMHYHKRITDKQWEDAKKIDLKANLVNRTPEERQNIDTNQDSEYNSYVNFVKSELMNNKAFKDENLGNVLQSG | not soluble

Row | Sequence | soluble on expression in E. coli
17 | PAGPFTRALWEASGDIIAGINSSDFITMLGDGTLRRPEFDFYIDQDAQYLAQYSRALARLSSIAPDSHAQIEWAQSAAECLVVEAELHRSYMAGKEVSAPSHITMAYTDFLIARTYTEDYVCGVAAVLPCYWLYAEIGLMLAEQNHDEHPYKDWLNTYSGEEFIAGTRAAIARLEKALENAGAEQRVDAARAFLSASVHEREFFDQATRHG | not soluble
18 | PARPFRVSNHDRSSRRGVMASSLQELISKTLDALVIATGLVTLVLEEDGTVVDTEEFFQTLGDNTHFMILEKGQKWMP | soluble
19 | PATCPIVPGQEMIIEISKGRSGLGLSIVGGKDTPLNAIVIHEVYEEGAAARDGRLWAGDQILEVNGVDLRNSSHEEAITALRQTPQKVRLVVYRDEAHYRDEE | soluble
20 | PDAARKAQILWCQPDRAKAWTDWMRKGKFPVGGSICDNPVAETTSLGEQFGFNGTPTLVFPNGRSQSGYSPMPQLEEIIRKNQ | not soluble
21 | PGWEIIHENGRPLYYNAEQKTKLHYPP | soluble
22 | PMEQVVRIHASSGTTGKPTVVGYTQNDIDNWANIVARSLRAAGGSAKDKIHVAYGYGLFTGGLGAHYGAERLGATVIPMSGGQTEKQAQLIRDFQPDMIMVTPSYCLNLIEELERQMGGDARGCSLRVGVFGAEPWTLAMRAEIERRLGITALDIYGLSEVMGPGVAMECLETVDGPTI | not soluble
23 | PNVVKMNKPFISLCPEITRAHALTLMDWLEDEHVTRHLSDSRHVSRFIEQVIDRVQLPVLTHLFNQGGRFFMAYDRHDVPVGFVRLVKTGSDCEIVLVIGNRDNWGRKLGASAIREGMKLAFFEMRAARLIAKVHPDNERSLNAFLRCGFVLESETP | not soluble
24 | PPLYVPEQLVVHKETHQAHVMIGSRGYNAYDDKRTALYLLNNILGGPGMNSRLNVSLRERRGLVYTVESNLTSYTDTGAFCIYFGTDPEDVDTCLKLTYKELKRMRDVKMTSSQLMAAKKQLIGQIGVASDNNENNALGMAKTFLHYNKYESSESVFRRIEALTAEGLLEVANEMFAEEYLSTLIYR | not soluble
25 | PRGSHMAEYLRLPHSLAMIRLCNPPVNAVSPTVIREVRNGLQKAGSDHTVKAIVICGANGNFCAGADIHGFSAFTPGLALGSLVDEIQRYQKPVLAAIQGVALGGGLELALGCHYRIANAKARVGLPEVTLGILPGARGTQLLPRVVGVPVALDLITSGKYLSADEALRLGILDAVVKSDPVEEAIKFAQKIIDKPIEPRRIFNKPVPSLPNMDSVFAEAIAKVRKQYPGVLAPETCVRSIQASVKHPYEVGIKEEEKLFMYLRASGQAKALQYAFFAEKSANKWSTPSGASWKTASAQPVSSVGVLGLGTMGRGIAISFARVGISVVAVESDPKQLDAAKKIITFTLEKEASRAHQNGQASAKPKLRFSSSTKELSTVDLVVEAVFEDMNLKKKVFAELSALCKPGAFLCTNTSALNVDDIASSTDRPQLVIGTHFFSPAHVMRLLEVIPSRYSSPTTIATVMSLSKKIGKIGVVVGNCYGFVGNRMLAPYYNQGFFLLEEGSKPEDVDGVLEEFGFKMGPFRVSDLAGLDVGWKIRKGQGLTGPSLPPGTPVRKRGNSRYSPLGDMLCEAGRFGQKTGKGWYQYDKPLGRIHKPDPWLSTFLSQYREVHHIEQRTISKEEILERCLYSLINEAFRILEEGMAARPEHIDVIYLHGYGWPRHKGGPMFYAASVGLPTVLEKLQKYYRQNPDIPQLEPSDYLRRLVAQGSPPLKEWQSLAGPHGSKL | soluble
26 | PSLSDEISPQGDGSFLIEGSTNIRDINKGLKWDLPTDGPRTLNGLILEHLEDIPESHLSVRVAGHPMEIVEIEENRIKLVRVYPKK | not soluble
27 | PSTAAWFNAREQAKLVDLYDSKIENATPLSAEQLLELAHRYNDRLTVGAALDPWANVPRGAGKEDGDGMAYKDQLRVDRTDVMARIRIPSIKVDLPIYHGTSDNTLKKGAGHLEGTSLPVGGPRTHSVITAHRGLAEATMFTNLNKVGVGDRFTIEVMGEVLTYEVRETRVVSPEDTRFLQTQDDRDLVTLVTCTPLGINTHRILVTAERITPTPQSDIDAARQASQIGFP | not soluble
28 | PVNGALDQYSARAANILAGNLDNHPLLEITALDFRMKANSDVLIAVTGAPLTLTVGGRPCSQWEPVSVRAGESVSIRGIHRGLRAYLAIHGSIEAGTLLGSAAPDTVVGFGLQLQEGTTLLSRRSVSPVRQPYFDLPLFRLGLERPSMGSDLSVDVTDGPDVAEFGESGELLFTSEYVVSGRSNHIGLRLGGELPERTSSDEVLSRGVPVGAVEVPSREELLVLHRGRGVTAGYPVLAVVTSTGLDVLAQARPGDKVRFRKTT | not soluble
29 | PYPIDLVSVVIPVYNEEASLPELLRRTEAACLELGRAFEIVLVDDGSRDRSAELLQAAAERDGSAVVAVILNRNYGQHAAILAGFEQSRGDLVITLDADLQNPPEEIPRLVERAAQGYDVVGSIRAERQDSAWRRWPSRLVNLAVQRSTGVAMHDYGCMLRAYRRSIVEAMLACRERSTFIPILANGFARHTCEIRVAHAERAHGESKYSAMRLLNLMFDLVTCMTTTPLR | not soluble
30 | QALQTLVEKISIVFFQKPFLHQATFNRRLKTTGGRYHLASHHLDFNPTVFLKYGQEELEKVIKHELCHYHLHLAGKGYQHKDKDFKELLAKTGGARYAPPLVERKKAVFHQYQCQSCGEVILRKRRIDTTRYVCGKCHGRLSWQ | not soluble
31 | QAVVTQESALTTSPGETVTLTCRSSTGAVTTSNYANWVQEKPDHLFTGLIGGTNKRAPGVPARFSGSLIGDKAALTITGAQTEDEAIYFCALWDSNHLVFGGGTKLTVLGQPKSSPSVTLFPPSSEELETNKATLVCTITDFYPGVVTVDWKVDGTPVTQGMETTQPSKQSNNKYMASSYLTLTARAWERHSSYSCQVTHEGHTVEKSLSPADC | soluble
